Reference: publication PMC4514675, “Novel Apo E-Derived ABCA1 Agonist Peptide (CS-6253) Promotes Reverse Cholesterol Transport and Induces Formation of preβ-1 HDL In Vitro” (PLoS ONE, 2015)
Where “and” joins values, the source holds several entries; their conditions need not be identical. Identical values can stand only once. Like-named read-outs stand apart in the source and are kept apart here.

Key:
BHK-mock cells = assay: Cholesterol efflux from control cells (unstimulated BHK-ABCA1, BHK-mock), media; type: cell-based, hamster
From the text: BHK cells stably transfected with an ABCA1 or ABCG1 expression vector that is mifepristone inducible and cells transfected with the same vector lacking the ABCA1 cDNA insert (mutant or mock-transfected) were generously provided by the late Dr. John F. Oram from the Department of Medicine, University of Washington, and were characterized and cultured as previously described. […] Mouse-derived peritoneal macrophages J774 were purchased from American Tissue Culture Collection (ATCC TIB-67, Cederlane, Burlington, Canada). For induction of ABCA1, BHK cells were incubated for 18–20 h with 10 nM mifepristone. […]
Fig 2 Effect of CS-6253 treatment on cholesterol efflux. […] Cholesterol efflux from either ABCA1 cells or control cells to apo A-I (closed circles), and CS-6253 (closed triangles) was determined at the indicated time points. […] ABCA1 was detected from THP-1 foam cells lysis at 4°C with lysis buffer containing 0.5% n-dodecylmaltoside in the presence of a protease inhibitor mixture followed by low speed centrifugation to remove cell debris. Protein concentration was determined by standard assay (Bio-Rad). […] After electrophoresis, ABCA1 was detected by an anti-ABCA1 antibody. […] 3[H]-FC and 3[H]-CE were separated by TLC and located by exposure to iodine vapor, and were scraped off into liquid scintillating vials and assayed for radioactivity. […]

ABCA1 = ABCA1 (Homo sapiens, UniProt O95477); assay: ABCA1-mediated cholesterol efflux from BHK-ABCA1 cells after pre-incubation of acceptor in human plasma; type: cell-based; parameters: expressed in transfected cells; host or cells: BHK cells, stably transfected, induced with 10 nM mifepristone (gift of J. F. Oram)
ABCA1, sequence (O95477 whole entry): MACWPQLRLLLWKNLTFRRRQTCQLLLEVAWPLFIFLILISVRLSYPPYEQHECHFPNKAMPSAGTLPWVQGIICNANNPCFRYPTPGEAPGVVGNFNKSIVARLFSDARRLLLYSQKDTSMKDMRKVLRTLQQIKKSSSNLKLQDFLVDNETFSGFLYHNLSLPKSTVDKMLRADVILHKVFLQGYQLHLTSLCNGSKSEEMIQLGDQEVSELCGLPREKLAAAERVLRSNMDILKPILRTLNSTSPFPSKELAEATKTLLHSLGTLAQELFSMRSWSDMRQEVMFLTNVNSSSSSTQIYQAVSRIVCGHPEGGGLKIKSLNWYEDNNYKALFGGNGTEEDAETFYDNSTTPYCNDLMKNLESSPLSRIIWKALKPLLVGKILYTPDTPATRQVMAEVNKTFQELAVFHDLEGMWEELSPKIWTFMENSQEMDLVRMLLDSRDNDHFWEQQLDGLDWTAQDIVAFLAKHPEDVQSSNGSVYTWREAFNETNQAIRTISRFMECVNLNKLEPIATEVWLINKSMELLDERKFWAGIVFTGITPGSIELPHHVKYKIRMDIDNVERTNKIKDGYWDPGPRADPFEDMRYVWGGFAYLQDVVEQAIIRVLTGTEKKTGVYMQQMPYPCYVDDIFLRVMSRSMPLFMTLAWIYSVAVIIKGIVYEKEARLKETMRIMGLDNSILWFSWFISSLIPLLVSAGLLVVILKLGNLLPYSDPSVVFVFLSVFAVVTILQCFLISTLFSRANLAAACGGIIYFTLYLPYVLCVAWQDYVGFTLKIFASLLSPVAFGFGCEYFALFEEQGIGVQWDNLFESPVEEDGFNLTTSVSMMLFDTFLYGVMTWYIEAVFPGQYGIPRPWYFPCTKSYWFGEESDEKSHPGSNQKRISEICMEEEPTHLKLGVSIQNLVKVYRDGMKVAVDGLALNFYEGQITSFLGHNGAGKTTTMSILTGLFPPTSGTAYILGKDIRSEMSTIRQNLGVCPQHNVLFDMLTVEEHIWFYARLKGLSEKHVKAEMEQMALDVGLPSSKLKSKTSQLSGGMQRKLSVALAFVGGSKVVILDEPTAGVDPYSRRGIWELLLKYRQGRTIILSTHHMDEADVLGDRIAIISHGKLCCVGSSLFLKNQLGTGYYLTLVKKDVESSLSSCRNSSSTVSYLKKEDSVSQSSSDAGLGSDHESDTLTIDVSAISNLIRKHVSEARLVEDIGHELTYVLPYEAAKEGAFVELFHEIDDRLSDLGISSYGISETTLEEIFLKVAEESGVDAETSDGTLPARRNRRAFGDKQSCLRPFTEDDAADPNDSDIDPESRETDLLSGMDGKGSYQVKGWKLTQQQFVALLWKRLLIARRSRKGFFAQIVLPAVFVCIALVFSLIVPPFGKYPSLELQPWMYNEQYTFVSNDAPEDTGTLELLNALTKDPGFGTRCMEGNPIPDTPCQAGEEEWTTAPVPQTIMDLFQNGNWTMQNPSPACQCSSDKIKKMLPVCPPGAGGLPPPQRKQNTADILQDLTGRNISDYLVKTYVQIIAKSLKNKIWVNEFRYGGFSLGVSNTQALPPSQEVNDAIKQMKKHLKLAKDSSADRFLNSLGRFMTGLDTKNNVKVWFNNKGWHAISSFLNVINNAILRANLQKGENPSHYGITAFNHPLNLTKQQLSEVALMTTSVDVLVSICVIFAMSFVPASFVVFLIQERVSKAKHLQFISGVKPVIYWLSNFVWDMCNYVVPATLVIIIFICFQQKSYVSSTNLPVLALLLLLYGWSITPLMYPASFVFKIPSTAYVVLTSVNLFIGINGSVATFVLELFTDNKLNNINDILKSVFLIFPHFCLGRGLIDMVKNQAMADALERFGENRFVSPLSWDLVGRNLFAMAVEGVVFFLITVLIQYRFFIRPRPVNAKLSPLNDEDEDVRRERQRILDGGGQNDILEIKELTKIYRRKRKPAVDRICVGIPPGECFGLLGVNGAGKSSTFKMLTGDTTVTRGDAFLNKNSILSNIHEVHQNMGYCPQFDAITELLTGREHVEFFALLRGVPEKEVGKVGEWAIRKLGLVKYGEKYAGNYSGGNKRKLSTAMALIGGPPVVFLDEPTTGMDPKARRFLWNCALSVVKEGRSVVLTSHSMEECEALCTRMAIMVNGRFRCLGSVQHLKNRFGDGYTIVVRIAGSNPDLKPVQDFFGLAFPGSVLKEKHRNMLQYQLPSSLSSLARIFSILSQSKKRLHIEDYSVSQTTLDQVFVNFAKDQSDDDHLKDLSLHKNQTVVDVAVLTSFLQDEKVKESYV
Method: We investigated cholesterol efflux from BHK cells after adding lipid free CS-6253 to media cell culture or to human EDTA-plasma which had been stored at -80°C. BHK overexpressing human ABCA1 were labeled with 2 μCi/ml ^3H-free cholesterol (Perkin Elmer, Norwalk, Connecticut) for 24 h. Afterward, BHK-ABCA1 were stimulated with 10 nmol/l mifepristone for 18–20 h (13). Cells were incubated with various doses of acceptor in media for 4 h at 37°C. Alternatively, plasma samples were first pre-incubated for 5 min at 37°C in plasma at mole ratios (10:1 or 1:1 relative to plasma apo A-I). To obtain the HDL fraction, apoB lipoproteins were precipitated from plasma by polyethylene glycol (PEG). Also, increased doses of lipid free CS-6253 and nHDL-CS-6253 were tested for cholesterol efflux after incubation with human plasma for optimum 1h at 37°C. ^3[H]-cholesterol loaded BHK cells expressing ABCA1 were incubated with 2.8% apoB depleted plasma samples [19] for 4 h for the efflux assays. Lipid free apo A-I and nHDL-apo A-I were used as control, nHDL-CS-6253 and nHDL-apo A-I were generated after incubation with BHK cells expressing ABCA1. Direct comparisons with peptide ATI-5261 are provided using identical protocols (12).
Fig 7 Dose dependent effects of pre-incubation of plasma with lipid free CS-6253, or nHDL-CS-6253 on ABCA1 cholesterol efflux. A. Increased doses of lipid free CS-6253 or apo A-I were added to normolipidemic plasma and incubated for 1h at 37°C. A volume of 2.8% of HDL fractions isolated by PEG was used for the measurements of cholesterol efflux from BHK cells expressing ABCA1 and mock cells. […] B. nHDL-CS-6253 and nHDL-apo A-I were generated as indicated above. nHDL particles were incubated in plasma for 1h at 37°C, and specific HDL fractions isolated by PEG were subjected to cholesterol efflux in ^3[H]-radiolabelled BHK cells. […] C. Mobilization of cholesterol efflux of increasing concentrations of peptide: plasma apo A-I molar ratios: (1:0) (closed circles), (1:10) (upright closed triangles), and (1:1) (closed squares). (C inset). The double reciprocal-plot was used to calculate the apparent appKm of the efflux activity in peptide: plasma with indicated ratios. Kinetics values are as follows, molar ratio of plasma apo A-I: CS-6253 (1:0); appKm (28±0.07 μM). Molar ratio of plasma apo A-I: CS-6253 (1:1); appKm (4.17±0.47 μM). Molar ratio of plasma apo A-I: CS-6253 (1:10); appKm (0.71±0.46 μM). D. Lipid free CS-6253 was incubated with normolipidemic plasma, using peptide: apo A-I mole ratio of (1:1) for 5 min at 37°C versus plasma alone. Isolated HDL fractions by PEG were separated by 2D-PAGGE and HDL subpopulations were detected by apo A-I Western blot. Molecular size markers are shown. In all experiments, efflux of ^3[H]cholesterol is shown as means ± SD of triplicate experiments.

Km (ABCA1; acceptor in human plasma 1 h 37°C, 2.8% HDL fraction, 4 h, BHK-ABCA1, Fig 7A/7B, read-out: Km, cholesterol efflux, plasma (Fig 7)): 0.03 ± 0.008 µM | Vmax, cholesterol efflux, plasma (Fig 7) (ABCA1; acceptor in human plasma 1 h 37°C, 2.8% HDL fraction, BHK-ABCA1, Fig 7A/7B): 9.26±0.29 % efflux/4h | Vmax, cholesterol efflux, plasma (Table 1) (ABCA1; efflux condition plasma, 4 h, BHK-ABCA1, Table 1, mean ± SD): 8.81±0.33 % efflux/4h | Km (ABCA1; efflux condition plasma, 4 h, BHK-ABCA1, Table 1, mean ± SD, read-out: Km, cholesterol efflux, plasma (Table 1)): 0.02 ± 0.0091 µM | appKm, HDL specific cholesterol efflux, plasma apo A-I alone (ABCA1; no peptide, 5 min, 37°C, efflux 4 h, Lineweaver-Burk, listed as plasma apo A-I): 28 ± 0.072 µM and 28 ± 0.07 µM
Substance: apolipoprotein A-I [apo A-I]
maximum cholesterol efflux by diffusion (BHK-mock cells; BHK mock and unstimulated BHK-ABCA1 cells): 0.75% | cholesterol efflux from control cells (BHK-mock cells; unstimulated BHK-ABCA1 and BHK-mock, CS-6253 30 μg/ml, apo A-I 10 μg/ml): no significant cholesterol efflux
